Assay [1] concerns the target T1, plasminogen-depleted human Fibrinogen (EMD/Calbiochem) (human, UniProt P02671 20-629; P02675 31-491; P02679 27-437, limits assumed).
T1 construct: Bought protein, IgG-depleted, coated on ELISA plates; also called FGN
T1 sequence (looked up) 1: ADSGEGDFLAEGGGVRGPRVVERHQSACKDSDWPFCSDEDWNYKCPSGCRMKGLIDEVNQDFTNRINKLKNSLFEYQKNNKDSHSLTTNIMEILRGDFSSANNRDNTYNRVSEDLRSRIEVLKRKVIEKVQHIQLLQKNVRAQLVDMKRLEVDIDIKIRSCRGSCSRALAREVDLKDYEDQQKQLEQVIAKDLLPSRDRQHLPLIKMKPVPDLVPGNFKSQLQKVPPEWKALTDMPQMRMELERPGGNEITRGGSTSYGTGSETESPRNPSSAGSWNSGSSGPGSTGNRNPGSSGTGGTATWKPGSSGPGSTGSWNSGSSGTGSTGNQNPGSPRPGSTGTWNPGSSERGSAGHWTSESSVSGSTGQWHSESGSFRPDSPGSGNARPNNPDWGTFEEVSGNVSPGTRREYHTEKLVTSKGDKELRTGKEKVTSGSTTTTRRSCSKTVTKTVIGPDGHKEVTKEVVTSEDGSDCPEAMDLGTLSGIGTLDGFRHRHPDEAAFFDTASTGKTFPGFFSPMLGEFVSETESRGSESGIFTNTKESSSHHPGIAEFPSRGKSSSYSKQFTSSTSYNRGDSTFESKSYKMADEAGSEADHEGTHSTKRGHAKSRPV
T1 sequence (looked up) 2: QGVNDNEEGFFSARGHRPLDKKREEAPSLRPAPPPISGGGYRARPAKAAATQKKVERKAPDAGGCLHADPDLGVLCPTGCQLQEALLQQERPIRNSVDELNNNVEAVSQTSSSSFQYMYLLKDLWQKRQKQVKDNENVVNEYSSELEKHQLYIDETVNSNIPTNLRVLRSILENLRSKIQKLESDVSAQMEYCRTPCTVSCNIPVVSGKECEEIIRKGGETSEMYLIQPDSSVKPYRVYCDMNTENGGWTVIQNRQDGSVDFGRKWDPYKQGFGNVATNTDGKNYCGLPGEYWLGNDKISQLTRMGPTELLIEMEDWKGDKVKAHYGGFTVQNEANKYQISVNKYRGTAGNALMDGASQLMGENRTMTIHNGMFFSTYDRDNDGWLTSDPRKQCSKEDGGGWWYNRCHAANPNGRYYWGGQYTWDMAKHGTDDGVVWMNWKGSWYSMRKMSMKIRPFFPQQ
T1 sequence (looked up) 3: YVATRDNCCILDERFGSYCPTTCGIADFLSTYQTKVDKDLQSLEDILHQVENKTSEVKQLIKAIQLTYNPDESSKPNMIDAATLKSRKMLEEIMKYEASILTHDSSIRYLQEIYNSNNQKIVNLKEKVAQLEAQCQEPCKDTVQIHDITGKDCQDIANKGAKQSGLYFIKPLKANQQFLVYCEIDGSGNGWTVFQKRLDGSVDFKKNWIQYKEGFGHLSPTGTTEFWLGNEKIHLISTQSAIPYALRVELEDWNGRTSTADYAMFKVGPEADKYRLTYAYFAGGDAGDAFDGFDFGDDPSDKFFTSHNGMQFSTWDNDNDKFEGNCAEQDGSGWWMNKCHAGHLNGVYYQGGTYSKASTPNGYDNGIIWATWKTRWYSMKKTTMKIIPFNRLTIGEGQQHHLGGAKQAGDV
The experiment in a line: ELISA on coated human fibrinogen; curve did not reach saturation. The protocol:
The humanized antibodies affinity for fibrinogen, fibrin and P2 peptide were assessed by Enzyme-linked immunosorbent assays (ELISA)s (FIGS. 7-16). ELISAs for fibrinogen binding were performed using plasminogen-depleted human Fibrinogen (EMD/Calbiochem). […] IgG1-depleted Fibrinogen (FGN) in 20 mM HEPES/Saline buffer was added to each well of half of a 96-well Nunc Maxisorp™ ELISA plate. The ELISAs for fibrin binding were prepared by adding 50 mL of 20 mM HEPES/Saline buffer containing 14 mM CaCl₂, and 2 units thrombin to each well of the second half of the Nunc Maxisorp™ ELISA plate. 50 mL of 20 mg fibrinogen in 20 mM HEPES/Saline buffer were then added to a total volume of 100 mL. Plates were placed in a 37° C. incubator for 1 hour to allow fibrinogen to clot into fibrin and subsequently placed overnight into a plate dryer at 37° C. overnight. The ELISAs for P2 peptide were prepared by addition of […] of 30 mM P2 peptide in 20 mM HEPES/Saline buffer to each well of a 96-well Nunc Maxisorp™ ELISA plate. Plates were transferred to the plate dryer and dried overnight at 37° C. All ELISAs were preformed using Nunc MaxiSorp 96-well ELISA plates. Blocking was performed using 100 mL 5% BSA in DPBS are incubated at RT for 1 hour. Plates were washed 5× in DPBS containing 0.05% Tween-20 (EL406 was used for the addition of wash buffer only). 50 mL of primary antibodies was diluted in 0.5% BSA in DPBS, and the primary antibodies were added to the plates and incubated for 2 hours at 37° C. Plates were washed 5× in DPBS/Tween. 100 mL secondary antibodies were diluted in 0.5% BSA in DPBS. The secondary antibodies were then added to the plates and incubated for 1 hour at RT. Afterwards, plates were washed 5× in DPBS/Tween. 100 mL of TMB/E substrate solution was added, and the reaction was stopped after 5 minutes with 1N HCl.
A general note: An ELISA detects its analyte on a solid surface through an enzyme-linked reagent.

Assay [2] addresses T2, P2 peptide comprising SEQ ID NO: 31 (human fibrin γ377-395) (human).
T2 construct: Bought (CPC Scientific 920712); also called human P2 peptide
T2 peptide: YSMKKTTMKIIPFNRLTIG
Kind of assay: SPR (Biacore) single cycle, steady state affinity; IgG from HEK supernatant captured, γ377-395 peptide analyte. (In general: In SPR one partner is held on a chip, and binding of the other changes the refractive index at the surface.)

Consider 4 molecules from patent US20240279357A1 (THERINI BIO, published 2024).

By EC50 is commonly meant the concentration giving half of the maximal effect. A low value points to a more potent agent. As a reminder, the Kd is the equilibrium constant for the complex coming apart.

B1: humanized VH5/Vκ2 antibody (antibody, IgG1, V domains shown)
VH: QVQLVQSGAEVKKPGSSVKVSCKASGYTFTSYWIHWVRQAPGQGLEWIGLIDPSDSYTNYNQKFRGRVTITRDTSTSTAYMELSSLRSEDTAVYYCASSDPTGCWGQGTTVTVSS
VL: DIVMTQAAFSNPVTPGTPASISCRSSKSLLHSSGITYLSWYLQKPGQSPQLLIYQMSNLASGVPDRFSSSGSGTDFTLKISRVEAEDVGVYYCAQNLELPLTFGQGTKLEIK
notes: IgG1; also called VH5/VK2; VH5Vk2
In turn, B1 displayed an EC50 in assay [1] of approximately 2.2 µM. For the same molecule, in assay [2], the equilibrium dissociation constant (Kd) is 79 µM and the “Relative KD” value was determined as 1 fold against VH5/VK2.

B2: humanized VH4/Vκ2 antibody (antibody, IgG1, V domains shown)
VH: QVQLVQSGAEVKKPGSSVKVSCKASGYTFTSYWIHWVRQAPGQGLEWIGLIDPSDSYTNYNQKFRGRVTITVDTSTSTAYMELSSLRSEDTAVYYCASSDPTGCWGQGTTVTVSS
VL: DIVMTQAAFSNPVTPGTPASISCRSSKSLLHSSGITYLSWYLQKPGQSPQLLIYQMSNLASGVPDRFSSSGSGTDFTLKISRVEAEDVGVYYCAQNLELPLTFGQGTKLEIK
notes: IgG1; also called VH4/VK2; VH4Vk2
Consider B2, for which the EC50 in assay [1] was approximately 3.8 µM. In assay [2], the Kd amounted to 47 µM and the “Relative KD” value is 1 fold against VH4/VK2.

B3: humanized VH6/Vκ2 antibody (antibody, IgG1, V domains shown)
VH: QVQLVQSGAEVKKPGSSVKVSCKASGYTFTSYWIHWVRQAPGQGLEWIGLIDPSDSYTNYNQKFQGRVTITRDTSTSTAYMELSSLRSEDTAVYYCASSDPTGCWGQGTTVTVSS
VL: DIVMTQAAFSNPVTPGTPASISCRSSKSLLHSSGITYLSWYLQKPGQSPQLLIYQMSNLASGVPDRFSSSGSGTDFTLKISRVEAEDVGVYYCAQNLELPLTFGQGTKLEIK
notes: Expressed as IgG1; also called VH6/VK2; VH6Vk2
The molecule B3 showed an EC50 in assay [1] of approximately 3.6 µM.

B4: humanized VH4/Vκ1 antibody (antibody, IgG1, V domains shown)
VH: QVQLVQSGAEVKKPGSSVKVSCKASGYTFTSYWIHWVRQAPGQGLEWIGLIDPSDSYTNYNQKFRGRVTITVDTSTSTAYMELSSLRSEDTAVYYCASSDPTGCWGQGTTVTVSS
VL: DIVMTQAAFSNPITPGTPASISCRSSKSLLHSSGITYLSWYLQKPGQSPQLLIYQMSNLASGVPDRFSSSGSGTDFTLRISRVEAEDVGVYYCAQNLELPLTFGQGTKLEIK
notes: Expressed as IgG1; also called VH4/VK1; VH4Vk1
In the case of B4, the concentration for a half-maximal effect (EC50) in assay [1] is approximately 3.2 µM.
